The source of these data is article PMC6235402, “Paired Immunoglobulin-like Type 2 Receptor Alpha G78R variant alters ligand binding and confers protection to Alzheimer's disease” (PLoS Genetics, 2018).

Where two headings read alike, the source gives them in different places.

Assay [1] concerns the target PILRA F76A, full length (human) (UniProt Q9UKJ1). The experiment in a line: flow cytometry on cells; 293T cells transfected with full-length PILRA variants, 48 h; incubated with soluble NPDC1-mFc at 50 ug/ml for 30 min on ice; anti-PILRA (APC) and anti-mouse IgG2a (FITC); percent of double-positive cells relative to G78 PILRA (100%).
The target of assay [2] is PILRA R72A, full length (human) (UniProt Q9UKJ1). Described as above.
Sequence of PILRA R72A, full length (human) (Q9UKJ1 20-303 R72A): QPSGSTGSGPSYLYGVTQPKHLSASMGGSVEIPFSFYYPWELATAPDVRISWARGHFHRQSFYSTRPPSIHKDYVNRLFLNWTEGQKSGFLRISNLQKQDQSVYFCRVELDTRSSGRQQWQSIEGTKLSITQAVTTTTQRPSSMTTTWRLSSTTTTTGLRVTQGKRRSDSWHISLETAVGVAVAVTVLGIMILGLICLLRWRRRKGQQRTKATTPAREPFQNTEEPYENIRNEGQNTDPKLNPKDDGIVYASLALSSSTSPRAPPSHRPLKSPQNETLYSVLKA
The target in assay [3] is PILRA R78 (AD protective) variant, G78R (rs1859788), full length (human) (UniProt Q9UKJ1). Described as above.
Sequence of PILRA R78 (AD protective) variant, G78R (rs1859788), full length (human) (Q9UKJ1 20-303, stated change not applied): as the sequence (Q9UKJ1 20-303 R72A) above, with A53R counted along it
The target of assay [4] is PILRA S80G, full length (human) (UniProt Q9UKJ1). The assay is described as above.
Sequence of PILRA S80G, full length (human) (Q9UKJ1 20-303 S80G): as the sequence (Q9UKJ1 20-303 R72A) above, with A53R, S61G counted along it
Assay [5] deals with PILRA Q140A, full length (human) (UniProt Q9UKJ1). Described as above.
Sequence of PILRA Q140A, full length (human) (Q9UKJ1 20-303 Q140A): as the sequence (Q9UKJ1 20-303 R72A) above, with A53R, Q121A counted along it
The target in assay [6] is PILRA R78 (AD protective) variant, G78R (rs1859788), full length (human) (UniProt Q9UKJ1). Described as above. The source holds these as a separate data set.
Assay [7] deals with PILRA S141A, full length (human) (UniProt Q9UKJ1). Described as above.
Sequence of PILRA S141A, full length (human) (Q9UKJ1 20-303 S141A): as the sequence (Q9UKJ1 20-303 R72A) above, with A53R, S122A counted along it
The target in assay [8] is PILRA R78 (AD protective, G78R) extracellular domain (1-196 aa) fused to murine IgG2a Fc (human) (UniProt Q9UKJ1). The experiment in a line: SPR; NPDC1-His binding to mIgG2a-tagged PILRA variants (S6C Fig); who was immobilised and the conditions not given.
The target of assay [9] is T1, PILRA G78 (AD risk) extracellular domain (1-196 aa) fused to murine IgG2a Fc (human, UniProt Q9UKJ1 20-196, R78G (by the check's mend)).
T1 construct: signal peptide in the construct; PILRA, human, ECD residues 1-196 of AJ400841, glycine at position 78; also called G78 PILRA-mFc; PILRA-mFC; not shown: Fc (murine IgG2a), C-terminal, kept
T1 sequence (Q9UKJ1 20-196 R78G): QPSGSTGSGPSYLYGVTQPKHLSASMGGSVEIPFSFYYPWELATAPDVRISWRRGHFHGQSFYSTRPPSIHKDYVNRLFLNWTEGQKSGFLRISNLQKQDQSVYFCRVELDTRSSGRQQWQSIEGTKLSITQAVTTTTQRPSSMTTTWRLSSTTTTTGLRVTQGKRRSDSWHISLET
The assay is described as above. The note with it: both partners purified.

Sequence of PILRA F76A, full length (human) (Q9UKJ1 20-303 F76A): as the sequence (Q9UKJ1 20-303 R72A) above, with A53R, F57A counted along it

B1: NPDC1 extracellular domain (1-190 aa) fused to murine IgG2a Fc (Fc fusion)
chain: GHPDVAACPGSLDCALKRRARCPPGAHACGPCLQPFQEDQQGLCVPRMRRPPGGGRPQPRLEDEIDFLAQELARKESGHSTPPLPKDRQRLPEPATLGFSARGQGLELGLPSTPGTPTPTPHTSLGSPVSSDPVHMSPLEPRGGQGDGLALVLILA
Regarding B1, the percent of G78 PILRA binding in assay [1] was 20 % of G78; in [2], 20 % of G78; in assay [3], 35 % of G78; in assay [4] it was 60 % of G78; in assay [5] it was 22 % of G78; in assay [6] it was 44 % of G78. Further, in [7], the percent of G78 PILRA binding is 117 % of G78.

B2: NPDC1-His (ligand, human, UniProt Q9NQX5 35-190, looked up)
chain: B1 chain
notes: the construct and its limits are not described in the methods; Likely a soluble extracellular construct
Consider B2, for which, in [8], the Kd was found to be 76.5 nM and the kon stood at 6800 M⁻¹ s⁻¹. Further, in assay [9], the Kd worked out at 16.8 nM and the kon was found to be 22000 M⁻¹ s⁻¹.
